Measurements reported in paper PMC12867014, “Angiopoietin-like 3 monomers are abundant in human plasma but are unable to inhibit endothelial lipase” (JCI Insight, 2025).

Columns and labels:
[1] = target: mouse ANGPTL3 S220A-R221A (cleavage-resistant) (mouse); assay: mass photometry; Refeyn TwoMP, ambient temperature, DPBS; ANGPTL3 purified from conditioned media by Strep-TactinXT affinity chromatography
[2] = target: mouse ANGPTL3 S220A-R221A (cleavage-resistant) (mouse); assay: native gel or EMSA; blue NativePAGE (Bis-Tris 3-12% gels, run at room temperature) of conditioned media, immunoblot with an antibody against ANGPTL3
[3] = target: Strep-tagged mouse ANGPTL3 (angiopoietin-like 3), wild-type (mouse); assay: mass photometry; Refeyn TwoMP, ambient temperature, DPBS; ANGPTL3 purified from conditioned media by Strep-TactinXT affinity chromatography
[4] = target: Strep-tagged mouse ANGPTL3 (angiopoietin-like 3), wild-type (mouse); assay: native gel or EMSA; blue NativePAGE (Bis-Tris 3-12% gels, run at room temperature) of conditioned media, immunoblot with an antibody against ANGPTL3
[5] = target: ANGPTL3 of human serum (human (endogenous in serum)); assay: SEC; Superdex 200 of pooled human serum, alone or spiked with conditioned media of recombinant wild-type or L124A human ANGPTL3 (L124A also run without serum); total ANGPTL3, trimeric ANGPTL3 and ANGPTL3/8 complexes in the fractions measured by dedicated immunoassays
[6] = target: endogenous ANGPTL3 secreted from Huh7 cells (human (endogenous in Huh7)); assay: native gel or EMSA; blue NativePAGE (Bis-Tris 3-12% gels, run at room temperature) of conditioned media, immunoblot with an antibody against ANGPTL3
[7] = Western blot of conditioned media; settings: glycan lost; control: wild type
[8] = target: the molecule itself; assay: SEC; Superdex 200 of pooled human serum, alone or spiked with conditioned media of recombinant wild-type or L124A human ANGPTL3 (L124A also run without serum); total ANGPTL3, trimeric ANGPTL3 and ANGPTL3/8 complexes in the fractions measured by dedicated immunoassays

“mouse ANGPTL3 S220A-R221A (cleavage-resistant) (natural protein)” gave a stoichiometry N [1] of 3 and a stoichiometry N [2] of 3.

For “Strep-tagged mouse ANGPTL3 (angiopoietin-like 3), wild-type (natural protein)”, the percent present as homotrimer [3] was 58%, the stoichiometry N [3] was 3 and the stoichiometry N [4] was 3.

“ANGPTL3 of human serum (natural protein)” showed a stoichiometry N [5] of 3.

Work on “endogenous ANGPTL3 secreted from Huh7 cells (natural protein)” yielded a stoichiometry N [6] of 3.

B1: ANGPTL3: M116A-S117A (protein)
parent chain: MHTIKLFLFVVPLVIASRVDPDLSSFDSAPSEPKSRFAMLDDVKILANGLLQLGHGLKDFVHKTKGQINDIFQKLNIFDQSFYDLSLRTNEIKEEEKELRRTTSTLQVKNEEVKNMSVELNSKLESLLEEKTALQHKVRALEEQLTNLILSPAGAQEHPEVTSLKSFVEQQDNSIRELLQSVEEQYKQLSQQHMQIKEIEKQLRKTGIQEPSENSLSSKSRAPRTTPPLQLNETENTEQDDLPADCSAVYNRGEHTSGVYTIKPRNSQGFNVYCDTQSGSPWTLIQHRKDGSQDFNETWENYEKGFGRLDGEFWLGLEKIYAIVQQSNYILRLELQDWKDSKHYVEYSFHLGSHETNYTLHVAEIAGNIPGALPEHTDLMFSTWNHRAKGQLYCPESYSGGWWWNDICGENNLNGKYNKPRTKSRPERRRGIYWRPQSRKLYAIKSSKMMLQPTT
In the case of B1, the expression_or_secretion [7] is reported as “no change”.

B2: recombinant wild-type human ANGPTL3 (His-tagged) (natural protein, UniProt Q9Y5C1 17-460, looked up)
chain: SRIDQDNSSFDSLSPEPKSRFAMLDDVKILANGLLQLGHGLKDFVHKTKGQINDIFQKLNIFDQSFYDLSLQTSEIKEEEKELRRTTYKLQVKNEEVKNMSLELNSKLESLLEEKILLQQKVKYLEEQLTNLIQNQPETPEHPEVTSLKTFVEKQDNSIKDLLQTVEDQYKQLNQQHSQIKEIENQLRRTSIQEPTEISLSSKPRAPRTTPFLQLNEIRNVKHDGIPAECTTIYNRGEHTSGMYAIRPSNSQVFHVYCDVISGSPWTLIQHRIDGSQNFNETWENYKYGFGRLDGEFWLGLEKIYSIVKQSNYVLRIELEDWKDNKHYIEYSFYLGNHETNYTLHLVAITGNVPNAIPENKDLVFSTWDHKAKGHFNCPEGYSGGWWWHDECGENNLNGKYNKPRAKSKPERRRGLSWKSQNGRLYSIKSTKMLIHPTDSESFE
notes: angiopoietin-like 3 (ANGPTL3), human, secreted into the medium; also called WT human ANGPTL3; wild-type trimeric ANGPTL3; source: HEK293T, transient transfection (Fugene6), conditioned media
In the case of B2, the “stoichiometry N” value [8] is reported as 3.
